How the values were obtained:
Conditions in all cases: FMN input: 0 or 200 uM; Eterna round: R93 (includes R88 designs)
MS2 coat protein [1] = assay: apparent KD of MS2 coat protein, switch ON state; designed switch direction (-1 OFF switch, 1 ON switch): 1; higher = weaker reporter binding
In short: (§1)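 For every design, apparent KD is the median of normalised binding-curve fits from its clusters. The RNA switches were transcribed on-chip from Illumina sequencing clusters and titrated with SNAP-549-labelled MS2 coat protein (twofold steps, 0.7 or 1.5 nM to 3 µM; 0.8–1.5 h to 10–20 min per step). Titrations used 100 mM Tris-HCl pH 7.5, 80 mM KCl, 4 mM MgCl2, without or with constant ligand.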

MS2 coat protein [2] = assay: apparent KD of MS2 coat protein, switch OFF state (with FMN for OFF switches, without FMN for ON switches); designed switch direction (-1 OFF switch, 1 ON switch): 1; higher = weaker reporter binding
In short: as §1

MS2 coat protein [3] = assay: apparent KD of MS2 coat protein, switch ON state; designed switch direction (-1 OFF switch, 1 ON switch): -1; higher = weaker reporter binding
In short: as §1

MS2 coat protein [4] = assay: apparent KD of MS2 coat protein, switch OFF state (with FMN for OFF switches, without FMN for ON switches); designed switch direction (-1 OFF switch, 1 ON switch): -1; higher = weaker reporter binding
In short: as §1

Row | Sequence | apparent KD of MS2 coat protein (MS2 coat protein [1]) [nM] | apparent KD of MS2 coat protein (MS2 coat protein [2]) [nM] | apparent KD of MS2 coat protein (MS2 coat protein [3]) [nM] | apparent KD of MS2 coat protein (MS2 coat protein [4]) [nM]
1 | AAAAAAAAAACUCAGGAUAUAGAUUGUUGAACAUGAGGAUCACCCAUGUAGUGAAAAGCGAAAAACUAGAAGGGAGGAAAAAAAAA [SameState2-03] | 30.5 | 63.3 | – | –
2 | AAAAAAAAAGUCGAGGAUAUCCACAUGGUGACAUGAGGAUCACCCAUGUGAAGAAAAGCACAUGAGGAGAAGGCGACAAAAAAAA [Same State 2.7b (Tightrope mod)] | 135 | 1110 | – | –
3 | AAAAAACAUGAGGAUCACCCAUGUAAAAAAAUGGGAGGAUAUACAAAGACGAAAGUCAAAGUAGAAGGCCUGAAAA [same state 4] | 29.8 | 105 | – | –
4 | AAAAAACAUGAGGAUCACCCAUGUCAAAAGACGUGAGGAUAUGUACAGACUUCGGUCUGUACAGAAGGCACGUAAA [SS1 - 1039] | 15.7 | 25.7 | – | –
5 | AAAAAACAUGAGGAUCACCCAUGUCGAAAGACGUGAGGAUAUGUACAGACUUCGGUCUGUACAGAAGGCACGAAAA [SS1 - 1038] | 18.5 | 60.4 | – | –
6 | AAAAAACAUGAGGAUCACCCAUGUCGAAAGACGUGAGGAUAUGUACAGACUUCGGUCUGUACAGAAGGCACGUCAA [SS1 - 1044] | 17.3 | 24.8 | – | –
7 | AAAAAACAUGAGGAUCACCCAUGUGAAAAUAUGGGAGGAUAUACAAACACGAAAGUGAAAGUAGAAGGCCUAAAAA [SS! MT 16] | 19.7 | 167 | – | –
8 | AAAAAACAUGAGGAUCACCCAUGUGAGAACAUGGGAGGAUAUACGAAGACGAAAGUCGAAGUAGAAGGCCUAAAAG [Garnet 79] | 994 | 91.2 | – | –
9 | AAAAAAUAAAAAAAGGAUAUAAAAGGUAGUACAUGAGGAUCACCCAUGUUCUACCAAAAAAUAAAAAAGAAGGAAAAAUAAAAAA [SS2: MS2 15] | 17.6 | 16.4 | – | –
10 | AAAACACAUGAGGAUCACCCAUGUGCCUAACUCGCAGGAUAUUUCUCGAUUAAAUGAUAGGAAGAAGGGUGAUAAA [Nob's Hobby 37 - Jieux - Same State 1] | 110 | 39.4 | – | –
11 | AAAAGACAUGAGGAUCACCCAUGUAAAAACGUAGGAGGAUAUGUCUUGAAAAAAGACUUGACAGAAGGCCUGUGUC [SS1 - 53] | 23 | 34.6 | – | –
12 | AAAAGACAUGAGGAUCACCCAUGUAAAGACGUAGGAGGAUAUGUCGUGAAAAAAGACUUGGCAGAAGGCCUGUGUC [SS1 - 40] | 21.4 | 26.6 | – | –
13 | AAAAGACAUGAGGAUCACCCAUGUCAAAACGUAGGAGGAUAUGUAUGGAAAACAUGCUGUACAGAAGGCCUGUGUC [SS1 - 28] | 14.2 | 17 | – | –
14 | AAAAGACAUGAGGAUCACCCAUGUCAAAAGACAUGAGGAUAUGUACAGACUUCGGUCUGUACAGAAGGCAUGUAAA [SS1 - 1069] | 16.3 | 21.6 | – | –
15 | AAAAGACAUGAGGAUCACCCAUGUGAAAACGUAGGAGGAUAUGUCGUGAAAAAAGACUUGGCAGAAGGCCUGUGUC [SS1 - 43] | 47 | 90.7 | – | –
16 | AAAAGACAUGAGGAUCACCCAUGUGAAAACGUGCGAGGAUAUGUAUGGAAACUAUACUGUACAGAAGGCGCGUGUC [SS1 - 82] | 19.7 | 25.4 | – | –
17 | AAAAGGGCGACACAGGAUAUGUUGACCCUAACAUGAGGAUCACCCAUGUGCAUUUAGGGUCGUGCGCAGAAGGGUGCAGCUCGGA [Enatin] | 21.1 | 41.8 | – | –
18 | AAAAUACAUGAGGAUCACCCAUGUGAGAAAAACGCAGGAUAUGCCCGUUGAAAAAGGCGGGCAGAAGGGUGCCGAA [SameState1-III] | 69.8 | 50.6 | – | –
19 | AAACCACAUGAGGAUCACCCAUGUGAAAAAAAUACAGGAUAUGGAAACACGAAAGUGAAACCAGAAGGGUGAAAAA [77%, Mat - Mod of Eli, 28] | 13.4 | 16.6 | – | –

Row | Sequence | apparent KD of MS2 coat protein (MS2 coat protein [1]) [nM] | apparent KD of MS2 coat protein (MS2 coat protein [2]) [nM] | apparent KD of MS2 coat protein (MS2 coat protein [3]) [nM] | apparent KD of MS2 coat protein (MS2 coat protein [4]) [nM]
20 | GAAAAGUGAGGAUAUACAGAUAAAAAAACGAAAAAAAAUCUGUAGAAGGCACAUGAGGAUCACCCAUGUAAAAA [Mat - Exclusion 4 - Mayanna - D106] | – | – | 31.7 | 29.8
21 | GAAAAGUGAGGAUAUGCGAAGGCGUCUGAUAGACGAGGCUAGCAGAAGGCACAUGAGGAUCACCCAUGUGGGAG [Mat - Exclusion 4 - Eli mod - D92] | – | – | 61.9 | 76.4
22 | GACUAGUCAGGAUAUACGAACAUGUCAAAAGACGUGAAGGAACAUGAGGAUCACCCAUGUAGAAGGGACUAGCA [Diamond 19] | – | – | 25.2 | 17.7
23 | GAUUAGUGAGGAUAUACAUGAGGAUCACCCAUGUGUAAAAAAAAACGCAAAAAAGAAUGUAGAAGGCACUAAAG [Mat - Exclusion 3 - Mayanna mod - D103] | – | – | 21.6 | 31.4
24 | GGCACUGUAGGAUAUACAUGAACAAUUGGCAUCCUCAGUCCACAUGAGGAUCACCCAUGUAGAAGGAUAGAAAA [Besorees] | – | – | 131 | 91.1
25 | GGCUAGUCAGGAUAUACGAACAUGUCAAAAGACGUGAAGGGACAUGAGGAUCACCCAUGUAGAAGGGACUAGCG [salish99-ex2-13] | – | – | 32.8 | 132
26 | GGGCCACAUGAGGAUCACCCAUGUAAGGAUAUGCUAGGGAUGGAAAAAAUUACGCAAAGCAGAAGGUACUAAAG [Janelle Amethyst 18 Mod 9 - Jieux - Exclusion 1] | – | – | 26.9 | 35.5
27 | GGGUAGUCAGGAUAUACAAACAUGUCAAAAGACGUGAAAAAACAUGAGGAUCACCCAUGUAGAAGGGACUACCC [Mat - Exclusion 2 - JL mod - D20] | – | – | 17.8 | 15
28 | GGUUGACGAGGAUAUACAUGAGGAUCACCCAUGUGAGAGAAAAAAGUGAGAAAGAAAAGUAGAAGGCGUUGACG [salish99-ex3-59] | – | – | 36.9 | 91.8
29 | GGUUGGCGAGGAUAUACAUGAGGAUCACCCAUGUGAGAGAAAAAAGUGAGGAGGAGGAGUAGAAGGCGCUGACG [salish99-ex3-18] | – | – | 28.4 | 97
30 | GGUUGUGAAGGAUAUACAUGAGGAUCACCCAUGUGAGAGAAAAAAGUGAGAAAGAAAAGUAGAAGGUCAUGACG [salish99-ex3-64] | – | – | 30.8 | 76.2
31 | UAAAACAGAGGAUAUACAUGAGGAUCACCCAUGUAAAAAUGUAGAAGGCUGAAAUAAAUAAGAAGGAAAUAAAA [Meechl Ex3 R2 m1] | – | – | 24.8 | 25.6
32 | UAAAGACAUGAGGAUCACCCAUGUGAGGAUAUAGGUGUAUGCAAAAAAAAGCAAAAAACUAGAAGGCACAGAAA [JR_Exc001_Sub304] | – | – | 59.6 | 68.9
33 | UAUGAGCGAGGAUAUGCUUGGGACGUCGUUCUUGCGGCGAGACAUGAGGAUCACCCAUGUAGAAGGCGCGAGCG [Harteesian Twist] | – | – | 17.4 | 16.7
34 | UCAGGUGGAGGAUAUACAGCUCGAUCCUGGAAUAAAACGGCACAUGAGGAUCACCCAUGUAGAAGGCCACAAAA [Texeussoat] | – | – | 18.9 | 55.1
35 | UCCAGACAUGAGGAUCACCCAUGUCAGGAUAUCUACAGAACCUCAUGUAAAAAACUGUAGAGAAGGGAUAUGAA [Design 97: Pseudoknot G] | – | – | 16.7 | 16
36 | UCCUCACAUGAGGAUCACCCAUGUGAGGAUAUGUACAUCAGGAAAAAAAAACUGAUGUACAGAAGGCACAUGAA [Design 10: Super Stable G-C 3] | – | – | 13.3 | 16.5
37 | UCGAUGUCAGGAUAUGUGUAAAGAAUAAAACAAAUAACAACACAGAAGGGACAUGAGGAUCACCCAUGUUACGA [May 42] | – | – | 42.2 | 86.2
38 | UUAGAACAUGAGGAUCACCCAUGUGAGGAUAUGCAAUACUAAAAUUAAGAUAAUUAUAGCAGAAGGCACGUAGU [JR_EXc001_Sub804] | – | – | 33.2 | 40.9

Reference: the supplement of paper PMC9170038
